Assay [1] concerns the target human XCR1 (human) (UniProt P46094). Put plainly: radioligand binding.
Assay [2] shares this target.
The target is the same in assay [3]. The source holds these as a separate data set.
Assay [4] shares this target. The experiment in a line: radioligand binding. This is another data set of the same source.

Substitutions are numbered along the chain they refer to. Names may count otherwise. Read-outs that look alike come from different tables or passages of the source.

For “XCL1 ΔVal^1 (from UniProt P47992 22-114) (ligand)”, the fold decrease in affinity against XCL1 CC3 in assay [1] was above 100 fold.
“XCL1 +Gly^N-term (from UniProt P47992 22-114) (ligand)” displayed a fold decrease in affinity against XCL1 CC3 in assay [1] above 100 fold. The calcium flux in XCR1-expressing HEK293 cells, EC50 in assay [2] is above 268 nM.

B1: XCL1 CC3 (ligand)
chain: VGSEVSDKRTCVSLTTQRLPCSRIKTYTITEGSLRAVIFITKRGLKVCADPQATWVRDCVRSMDRKSNTRNNMIQTKPTGTQQSTNTAVTLTG
What is called EC50 is the midpoint of the concentration-response curve. A higher EC50 goes with a need for much substance. As for B1, the EC50 in assay [1] amounted to 1 nM. Moreover, the ^3H-IP3 accumulation in COS-7 cells transfected with XCR1 and Gqi4myr, EC50 in assay [3] was 14.1 nM.

B2: XCL1 CC3 T10A (ligand)
chain: B1 chain with T10A
In assay [4], B2 registered an EC50 below 1 nM.

B3: XCL1 CC3 D7A (ligand)
chain: B1 chain with D7A
The molecule B3 had an EC50 in assay [4] below 1 nM. Also, the calcium flux in XCR1-expressing HEK293 cells, EC50 in assay [2] is above 268 nM.

B4: XCL1 CC3 R9A (ligand)
chain: B1 chain with R9A
As for B4, the 50% effective concentration (EC50) in assay [1] is below 1 nM.

B5: XCL1 CC3 G2A (ligand)
chain: B1 chain with G2A
In assay [1], B5 registered a fold decrease in affinity against XCL1 CC3 above 100 fold. In addition, the calcium flux in XCR1-expressing HEK293 cells, EC50 in assay [2] was above 268 nM.

B6: XCL1 CC3 E4A (ligand)
chain: B1 chain with E4A
With B6, the fold decrease in affinity against XCL1 CC3 in assay [1] is above 100 fold.

B7: XCL1 CC3 S6A (ligand)
chain: B1 chain with S6A
Consider B7, for which, in assay [1], the EC50 was below 1 nM.

B8: XCL1 WT (ligand)
chain: B1 chain with C21V, C59V
As for B8, in assay [1], the 50% effective concentration (EC50) was found to be 7.7 nM. In addition, the ^3H-IP3 accumulation in COS-7 cells transfected with XCR1 and Gqi4myr, EC50 in assay [3] was 17.6 nM.

B9: XCL1 CC3 V1A (ligand)
chain: B1 chain with V1A
For B9, the calcium flux in XCR1-expressing HEK293 cells, EC50 in assay [2] was above 268 nM.

B10: XCL1 CC3 V5A (ligand)
chain: B1 chain with V5A
B10 gave an EC50 in assay [1] of 8 nM.

B11: XCL1 CC3 S3A (ligand)
chain: B1 chain with S3A
As for B11, the calcium flux in XCR1-expressing HEK293 cells, EC50 in assay [2] was above 268 nM.

B12: XCL1 CC3 K8A (ligand)
chain: B1 chain with K8A
For B12, the values for the EC50 in assay [1] and in assay [4] were 5.2 nM and below 1 nM, respectively. Further, the calcium flux in XCR1-expressing HEK293 cells, EC50 in assay [2] was above 268 nM.

These data come from paper PMC6733756.
